The values below come from publication PMC9573943, “Contribution of the 12–17 hydrophobic region of islet amyloid polypeptide in self-assembly and cytotoxicity” (Frontiers in Molecular Biosciences, 2022).

The conditions of data set [1]: cited from earlier work. From the text: Countless studies have highlighted the key contributions of the 20–29 domain for IAPP self-assembly, often referred to as the amyloidogenic core ([Glenner et al., 1988]). The fact that the sequence from rodent IAPP (rIAPP) includes three β-breaker prolines within the 20-29 region, and is non-amyloidogenic and poorly toxic, further highlights the critical role of this segment ([Moriarty and Raleigh, 1999]; [Tomasello et al., 2014]).

A short description of data set [2]: Kinetics of amyloid formation monitored by ThT fluorescence. It is filed as physicochemical. Particulars: 40 μM ThT, 20 mM Tris-HCl pH 7.4, 25°C, no agitation. As for the experimental part:
Aggregation mixtures were prepared by dissolving the lyophilized peptide at a concentration of 50 μM in 20 mM Tris-HCl, pH 7.4. Assays were performed at 25°C without stirring in sealed black-wall clear-bottom 96-well nonbinding surface plates with 100 μL/well. Final peptide concentrations were 12.5 and 25 μM, and thioflavin T (ThT) concentration was fixed at 40 μM. Fluorescence was measured every 10 min (excitation: 440 nm, emission: 485 nm) and data from triplicate wells were averaged, corrected by subtracting the blank control, and plotted as ThT fluorescence vs. time. Data were normalized with maximum ThT fluorescence intensity obtained for unmodified IAPP. Data were fitted to a sigmoidal Boltzmann model: Y=Yo+(Ymax−Yo)/1+e^−(T−T50)/ K where T 50 is the time required to reach half of the maximum fluorescence intensity, k is the apparent first-order constant, and Y max and Y 0 are the maximum and initial ThT fluorescence values. Lag time corresponds to T50 - 2/k. Data of at least six assays performed with different peptide lots were averaged and expressed as the mean ± S.D. Statistical analysis was performed using Student’s t test, and statistically significant difference between IAPP and analogs was established at (*) p < 0.05; (**) p < 0.005; (***) p < 0.0005.

Data set [3] can be described thus: Peptide self-assembly under fully quiescent conditions (CD, ThT and ANS fluorescence, TEM, AFM). Type of data set: physicochemical. Particulars: 50 μM peptide; for Assemblies observed by TEM after 48 h incubation / Overall effect of the substitution on amyloid formation, in words: 20 mM Tris-HCl pH 7.4, quiescent; for Assemblies observed by TEM after 48 h incubation: negative stain TEM; for Overall effect of the substitution on amyloid formation, in words: CD, ThT, ANS, TEM, compared with unmodified IAPP. As for the experimental part: (§1) Solutions were prepared by dissolving the peptide at a concentration of 50 μM in 20 mM Tris-HCl, pH 7.4, and were incubated at room temperature without agitation in 1.5 ml Eppendorf microtubes. For IAPP12-17, the lyophilized peptide was dissolved in 20 mM acetate pH 6.5 in the presence of 3% DMSO, or HFIP, at a final concentration of 500 μM and the peptide solution was incubated at 37 °C under constant rotational agitation.
(§2) At the indicating time of incubation, peptide solutions were diluted to 25 μM in presence of 40 μM ThT, or 25 μM 8-anilino-1-naphthalenesulfonic acid (ANS). Fluorescence was measured in 10-mm pathlength microcells using a PTI QuantaMaster spectrofluorometer. For ThT, excitation was set at 440 nm, and the emission spectrum from 450 to 550 nm was recorded. For ANS, the excitation was set at 355 nm, and the emission scan was recorded from 385 to 585 nm.
(§3) After incubation, peptide solutions were diluted in water to 25 μM and incorporated into a 2-mm path length quartz cell. For IAPP12-17, the solution was diluted to 150 μM. Far-UV CD spectra were recorded from 190 to 260 nm using a Jasco J-815 CD spectropolarimeter at 25°C. The wavelength step was set at 0.5 nm with an average time of 10 s per scan at each wavelength. Spectra were background-subtracted with buffer solution. Raw data were converted to mean residue ellipticity (MRE): MRE=Mean residue weight (g/mol)X CD signal (deg)/10 X pathlength (cm) X peptide concentration (g/mL)
(§4) After incubation, peptide solutions were diluted to 10 μM, or 100 μΜ for IAPP12-17, before being applied on glow-discharged carbon films on 300-mesh copper grids. Samples were adsorbed and negatively stained with 1.5% uranyl formate for 45 s. Images were recorded using a FEI Tecnai G2 Spirit Twin microscope operating at 120 kV and equipped with a Gatan Ultrascan scan 4,000 4k × 4k CCD camera system.
After incubation, peptide solutions were diluted in 1% acetic acid to a concentration of 7.5 μΜ. […] Images were recorded using Veeco/Bruker multimode AFM instrument using ScanAsyst-air mode with a silicon tip (2–12 nm tip radius, 0.4 N/m force) on a nitride lever. Images were taken at 0.977 Hz and 512 scan/min.

Data set [4] can be described thus: Lipid membrane leakage (calcein-loaded LUVs). The settings on record: 25 μM peptide, 500 μM phospholipids, LUVs DOPC:DOPG 9:1, 20 mM Tris-HCl, 150 mM NaCl, pH 7.4, read every 10 min over 24 h; IAPP value reached after 10 h; at least four assays. Here is the method:
Large unilamellar vesicles (LUVs) were assembled from 1,2-Dioleoyl-sn-glycero-3-phosphocholine (DOPC) and 2-dioleoyl-sn-glycero-3-phospho-(1′-rac-glycerol) (DOPG) at a 9:1 M ratio (DOPC:DOPG). Lipids were solubilized in 100% chloroform, which was then evaporated. […] The lipid mixture was freeze-thawed five times before being extruded through a 100 nm membrane for 20 cycles. Nonencapsulated calcein was removed by gel filtration using a Sephadex G25 fine resin and 20 mM Tris-HCl, 150 mM NaCl, pH 7.4, as elution buffer. Final lipid concentration was determined by a colorimetric assay ([Babych et al., 2021]). Lyophilized peptides were solubilized in 20 mM Tris-HCl, 150 mM NaCl, pH 7.4, at 50 μM prior to dilution into calcein-LUVs, to reach 25 μM peptide and 500 μM phospholipids. Fluorescence was monitored in sealed black-wall, clear-bottom 96-well non-binding surface plates with 100 μL/well. […] 100% leakage (Fmax) was determined with 0.2% Triton X-100 and LUV leakage was reported using:
Membrane leakage (%) = (F−F baseline)/(F max−F baseline)
Data of at least four assays with different peptide lots were averaged and expressed as the mean ± S.D. Statistical analysis was performed using Student’s t test, and statistically significant difference was established at (*) p < 0.05; (**) p < 0.005; (***) p < 0.0005.

Data set [5] concerns INS-1E cells. Nature of the data set: Cell viability by resazurin reduction. Type of data set: cell-based, Rat. Particulars: freshly dissolved peptide up to 50 μM, 24 h, at least five assays. Here is the method: (§5) Rat INS-1E cells were cultured in treated black-wall clear-bottom 96-well plates at a density of 25,000 cell/well in RPMI-1640 medium supplemented with 10% FBS, 2 mM L-glutamine, 100 U/ml penicillin, 100 μg/ml streptomycin, 10 mM HEPES, 1 mM sodium pyruvate and 50 μM β-mercaptoethanol. After 48 h of incubation at 37°C in 5% CO2, cells were treated with 50 μL of peptide freshly dissolved in 20 mM Tris-HCl, pH 7.4. […] Cell viability (%) was calculated from the ratio of the fluorescence of the treated cells to the vehicle-treated cells. Data of at least five assays performed with different peptide lots were averaged and expressed as the mean ± S.D. Statistical analysis was performed using Student’s t test, and statistically significant difference was established at (*) p < 0.05; (**) p < 0.005; (***) p < 0.0005. For Live/Dead viability assay, cells were plated in 12-well plates at density of 250,000 cell/well for 48 h before treatment with 25 μM peptide.
(Alamar Blue is a resazurin reagent that responds to reducing activity.)

For data set [6], the system named is INS-1E cells. Nature of the data set: Live/Dead viability assay (calcein-AM / ethidium homodimer-1, fluorescence microscopy). It is filed as cell-based, Rat. Particulars: 25 μM freshly solubilized peptide, 24 h, calcein-AM (green, live) and ethidium homodimer-1 (red, dead). As for the experimental part: as §5
Data set [7] is described as follows: TFE titration by far-UV CD spectroscopy (helical folding). It is filed as physicochemical. The settings on record: ellipticity at 222 nm, Tris-HCl 20 mM, TFE titration (0 to 30% TFE). As for the experimental part:
as §3

The nature of data set [8]: Solubility and self-assembly of the IAPP12-17 fragment (CD, ThT, ANS, TEM). Type of data set: physicochemical. Here is the method: as §1, §2, §3, §4
[9] abbreviates: 20 mM Tris-HCl pH 7.4, room temperature, no agitation.

“Also recorded” adds a separate entry of the source. Bridge positions count the residues as written; N and C are the ends. Ends that are not written are not given here.

For “ANFLV [pentapeptide corresponding to the segment 13-17 of IAPP, from a recent study]”, in data set [1] (several days of incubation, ref Rozniakowski et al., 2020), the “Fibril formation of the 13-17 pentapeptide” value is “did not form fibrils”.
Take “F15A: full-length IAPP with Phe15 replaced by alanine (KCNTATCATQRLANALVHSSNNFGAILSSTNVGSNTY; disulfide 2-7; ends not checked; UniProt P10997 34-70, looked up, variant F15A)”: the “Increase of ThT fluorescence signal” value in data set [2] (12.5 μM peptide) was “no increase of ThT fluorescence signal could be detected”. In addition, the “Lag time of amyloid formation” value in data set [2] (25 μM peptide, nonbinding surface 96-well plate, read every 10 min, lag time = T50 - 2/k, mean ± S.D. of at least six assays) worked out at 14.2 ± 2.2 h. For the same substance, in data set [3], the “Assemblies observed by TEM after 48 h incubation” value was “no fibrillar aggregates could be observed”; the “Overall effect of the substitution on amyloid formation, in words” value (from here on “Overall effect of the substitution”) was “delayed the appearance of ThT and ANS-positive signals, and β-sheet-rich assemblies”. Also, the “Assemblies observed by AFM after 96 h incubation” value in data set [3] (20 mM Tris-HCl pH 7.4, room temperature, no agitation, 96 h) is “only small aggregates”. Further, the “Assemblies observed by TEM after 168 h (7 days) incubation” value in data set [3] (setting [9]) is listed as “amyloid fibrils could be observed”. For the same substance, the “Maximum membrane leakage (calcein fluorescence, % of that with Triton X-100)” value in data set [4] is on record as 55%. Further, the “Cytotoxicity compared with unmodified IAPP, in words” value with INS-1E cells [5] was “reduced IAPP toxicity”. The “Cell death in Live/Dead assay, in words” value in the data set with INS-1E cells [6] is listed as “decreased toxicity compared to unmodified IAPP”.
As for “F15G: full-length IAPP with Gly at position Phe15 (KCNTATCATQRLANGLVHSSNNFGAILSSTNVGSNTY; disulfide 2-7; ends not checked; UniProt P10997 34-70, looked up, variant F15G)”, in data set [3], the “Assemblies observed by TEM after 48 h incubation” value is “no aggregates could be detected” and the “Overall effect of the substitution” value is “delayed IAPP amyloid formation”. The “Assemblies observed by TEM after 168 h (7 days) incubation” value in data set [3] (setting [9]) is reported as “some partially dispersed amyloid fibrils”. Further, in the data set on INS-1E cells [5], the “Cytotoxicity compared with unmodified IAPP, in words” value is “significantly reduced IAPP cytotoxicity”. Besides, the “TFE-induced helical folding compared with unmodified IAPP, in words” value (“TFE-induced helical folding” for short) in data set [7] is “destabilizes the propensity of IAPP to adopt an α-helix”.
With “L16G: full-length IAPP with Gly at position Leu16 (KCNTATCATQRLANFGVHSSNNFGAILSSTNVGSNTY; disulfide 2-7; ends not checked; UniProt P10997 34-70, looked up, variant L16G)”, in data set [3], the “Assemblies observed by TEM after 48 h incubation” value is listed as “Oligomer-like structures” and the “Overall effect of the substitution” value is “delayed IAPP amyloid formation”. For the same substance, in the data set with INS-1E cells [5], the “Cytotoxicity compared with unmodified IAPP, in words” value is “significantly reduced IAPP cytotoxicity”. The “TFE-induced helical folding” value in data set [7] is “destabilizes the propensity of IAPP to adopt an α-helix”.
Take “LANFLV [IAPP12-17, short C-amidated peptide encompassing the 12–17 segment (LANFLV) of IAPP]”: in data set [8] (500 μM peptide incubated at 37 °C, diluted to 25 μM with 40 μM ThT or 25 μM ANS), the “ThT and ANS fluorescence of the aggregates” value is “ThT and ANS negative”. For the same substance, the “Assemblies observed by TEM after 7 days incubation” value in data set [8] (500 μM peptide, 20 mM acetate pH 6.5, 3% HFIP or 3% DMSO, 37 °C, constant agitation, longer fibrils with HFIP) is reported as “laterally aligned rod-like fibrils”. The “Secondary structure over incubation time (far-UV CD)” value in data set [8] (500 μM peptide, 20 mM acetate pH 6.5, 3% HFIP, 37 °C, constant rotary agitation) is listed as “mainly a random coil secondary structure after its solubilization, which evolves into β-sheet after prolonged incubation times”. For the same substance, in data set [8] (lyophilized/monomerized peptide, needed HFIP or DMSO before dilution in 20 mM acetate buffer pH 6.5), the “Solubility, in words” value was “poor solubility”.
As to “N14G: full-length IAPP with Asn14 substituted by Gly (KCNTATCATQRLAGFLVHSSNNFGAILSSTNVGSNTY; disulfide 2-7; ends not checked; UniProt P10997 34-70, looked up, variant N14G)”, the “Assemblies observed by TEM after 48 h incubation” value in data set [3] is “short, less defined, and twisted”. The “Secondary conformation / conformational transition over incubation (far-UV CD), in words” value in data set [3] (20 mM Tris-HCl pH 7.4, room temperature, fully quiescent, up to 7 days) is recorded as “delayed the random coil-to-β-sheet shift”. Besides, in the data set with INS-1E cells [5], the “Cytotoxicity compared with unmodified IAPP, in words” value is listed as “significantly reduced IAPP cytotoxicity; also recorded: poorly toxic for pancreatic cells, even at 50 μM”. For the same substance, the “TFE-induced helical folding” value in data set [7] is on record as “destabilizes the propensity of IAPP to adopt an α-helix”.
With “rIAPP: rodent IAPP, includes three β-breaker prolines within the 20-29 region”, the “Amyloidogenicity of rodent IAPP” value in data set [1] (ref Moriarty and Raleigh, 1999, Tomasello et al., 2014) is “non-amyloidogenic”.
